This data set has as its system Saccharomyces cerevisiae. The experiment in a line: protein stability index of tFT-peptide fusion (C-terminal peptide) (PSI (0-1 scale)); higher = more stable (slower turnover). As to conditions: temperature: 30 C. How it is done: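 MPS profiling in S. cerevisiae of the yeast C-terminome library: the last 12 aa of each annotated ORF are fused to the C-terminus of a sfGFP-mCherry timer, after a GGGS linker. Cells are FACS-sorted into 8 mCherry/sfGFP bins and deep-sequenced. PSI runs from 0 (unstable) to 1 (stable); wild type and das1Δ backgrounds, two technical replicates each.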

Where [1] appears, read: genetic background: das1 deletion.

The values below come from the supplement of paper PMC10724198.

± gives the standard deviation of the averaged measurements.

Regarding AAANILFSDHAD [RAD23 C-terminal 12 aa], the protein stability index is, setting by setting: under setting [1], 0.739 ± 0.032; (genetic background: wild type) 0.733 ± 0.032.

On to AAGVGSVHGINR [COY1 C-terminal 12 aa], for which the protein stability index turned out to be 0.7 ± 0.03 under setting [1] and 0.6645 ± 0.0066 (genetic background: wild type).

On to AAISFKEAPRSD [ANB1 C-terminal 12 aa], for which the protein stability index stood at 0.723 ± 0.037 under setting [1] and 0.694 ± 0.036 (genetic background: wild type).

Sequence AARPCLEGSVAP [YOR050C C-terminal 12 aa] showed a protein stability index under setting [1] of 0.686 ± 0.01 and a protein stability index (genetic background: wild type) of 0.6795 ± 0.0067.

As for ADETVDFYVYDE [SWD2 C-terminal 12 aa], the protein stability index worked out at 0.744 ± 0.027 under setting [1] and 0.698 ± 0.06 (genetic background: wild type).

As to AEFLGSFDELVL [EEB1 C-terminal 12 aa], the protein stability index came out at 0.72333 ± 5e-06 under setting [1] and 0.719 ± 0.018 (genetic background: wild type).

As for AEIISVRQVDQS [GIT1 C-terminal 12 aa], the protein stability index is, setting by setting: under setting [1], 0.673 ± 0.017; (genetic background: wild type) 0.705 ± 0.051.

On to AESDDKSDNYGA [PRP45 C-terminal 12 aa], for which the protein stability index under setting [1] was found to be 0.689 ± 0.032 and the protein stability index (genetic background: wild type) stood at 0.717 ± 0.036.

As to AETLLSQRSRDR [DNF2 C-terminal 12 aa], the protein stability index is, setting by setting: under setting [1], 0.721 ± 0.028; (genetic background: wild type) 0.692 ± 0.048.

For the sequence AGFGCLDSIILY [GSH2 C-terminal 12 aa], the protein stability index by setting is: under setting [1], 0.7068 ± 0.0036; (genetic background: wild type) 0.732 ± 0.038.

Regarding AHRENIAFPPQF [YHR033W C-terminal 12 aa], the protein stability index was 0.739 ± 0.0092 under setting [1] and 0.744 ± 0.067 (genetic background: wild type).

For the sequence AIDTLLKMSSSD [SRL3 C-terminal 12 aa], the protein stability index is 0.703 ± 0.03 under setting [1] and 0.674 ± 0.051 (genetic background: wild type).

As for AIFLFLVGLFMK [UBC6 C-terminal 12 aa], the protein stability index is 0.289 ± 0.011 under setting [1] and 0.297 ± 0.017 (genetic background: wild type).

In the case of AKAGSTPKFRTE [YNL050C C-terminal 12 aa], the protein stability index was found to be 0.6897 ± 0.0035 under setting [1] and 0.6555 ± 0.0053 (genetic background: wild type).

Take AKDFLEKRGISK [PAM18 C-terminal 12 aa]: the protein stability index under setting [1] came out at 0.711 ± 0.0047 and the protein stability index (genetic background: wild type) is 0.705 ± 0.023.

AKFDGHAKTCHI [YBR051W C-terminal 12 aa]: the protein stability index is, setting by setting: under setting [1], 0.717 ± 0.021; (genetic background: wild type) 0.70733 ± 5e-06.

For the sequence AKKTNKLALTHV [SEC26 C-terminal 12 aa], the protein stability index came to 0.7167 ± 0.0064 under setting [1] and 0.718 ± 0.038 (genetic background: wild type).

Take “ALAFSKIPSVFL [YMR153C-A C-terminal 12 aa]”: the protein stability index runs as follows: under setting [1], 0.722 ± 0.035; (genetic background: wild type) 0.687 ± 0.0091.

With ALDKYLIEIHHW [NPR3 C-terminal 12 aa], the protein stability index came to 0.718 ± 0.041 under setting [1] and 0.728 ± 0.013 (genetic background: wild type).

In the case of ALGRKTSNGGRI [MKS1 C-terminal 12 aa], the protein stability index was 0.7161 ± 0.004 under setting [1] and 0.724 ± 0.049 (genetic background: wild type).

Turning to AMSARKLSAARK [PCH2 C-terminal 12 aa], the protein stability index under setting [1] turned out to be 0.677 ± 0.015 and the protein stability index (genetic background: wild type) worked out at 0.666 ± 0.025.

Take ANLVYMKADVFC [HTD2 C-terminal 12 aa]: the protein stability index reads like this: under setting [1], 0.581 ± 0.012; (genetic background: wild type) 0.61 ± 0.066.

Consider ANTDKNNNPPGN [SNG1 C-terminal 12 aa], for which the protein stability index worked out at 0.698 ± 0.016 under setting [1] and 0.751 ± 0.07 (genetic background: wild type).

For APHVLNDLLLKF [PGA1 C-terminal 12 aa], the protein stability index reads like this: under setting [1], 0.7108 ± 0.0037; (genetic background: wild type) 0.666 ± 0.017.

APRKEILACSDL [YOR392W C-terminal 12 aa]: the protein stability index runs as follows: under setting [1], 0.718 ± 0.029; (genetic background: wild type) 0.665 ± 0.04.

Take AQAEVIRGLQSL [CAP2 C-terminal 12 aa]: the protein stability index is, setting by setting: under setting [1], 0.682 ± 0.023; (genetic background: wild type) 0.672 ± 0.03.

As for AQFKEYLYQNDF [HAM1 C-terminal 12 aa], the protein stability index is 0.704 ± 0.01 under setting [1] and 0.697 ± 0.022 (genetic background: wild type).

As to AQGEKDAAATAN [TOM22 C-terminal 12 aa], the protein stability index was 0.677 ± 0.019 under setting [1] and 0.6591 ± 0.0032 (genetic background: wild type).

In the case of ARKFWTEDNNNL [STE2 C-terminal 12 aa], the protein stability index stood at 0.72 ± 0.023 under setting [1] and 0.691 ± 0.039 (genetic background: wild type).

Regarding ARLVSNEPILLD [CWC23 C-terminal 12 aa], the protein stability index is, setting by setting: under setting [1], 0.725 ± 0.026; (genetic background: wild type) 0.704 ± 0.053.

As to ARTALKRLIDDQ [MSA1 C-terminal 12 aa], the protein stability index reads like this: under setting [1], 0.692 ± 0.023; (genetic background: wild type) 0.698 ± 0.025.

On to ARTKRLVQFEAR [RPC10 C-terminal 12 aa], for which the protein stability index worked out at 0.6826 ± 0.0044 under setting [1] and 0.7169 ± 0.007 (genetic background: wild type).

Take ASVRIFLYPSNI [RPL33A C-terminal 12 aa]: the protein stability index by setting is: under setting [1], 0.7 ± 0.013; (genetic background: wild type) 0.697 ± 0.017.

As for ATAKEWTKKYAV [UBC5 C-terminal 12 aa], the protein stability index by setting is: under setting [1], 0.7 ± 0.018; (genetic background: wild type) 0.729 ± 0.045.

The sequence ATRKALETARSA [MRPL13 C-terminal 12 aa] had a protein stability index under setting [1] of 0.718 ± 0.0076 and a protein stability index (genetic background: wild type) of 0.728 ± 0.036.

With ATSITSLGVKRA [AUR1 C-terminal 12 aa], the protein stability index by setting is: under setting [1], 0.702 ± 0.01; (genetic background: wild type) 0.688 ± 0.026.

The sequence AVSVPRISSPMH [ICS3 C-terminal 12 aa] came in with a protein stability index under setting [1] of 0.7029 ± 0.0038 and a protein stability index (genetic background: wild type) of 0.73 ± 0.028.

Turning to AWDIKQTLDSLA [CHO2 C-terminal 12 aa], the protein stability index runs as follows: under setting [1], 0.709 ± 0.023; (genetic background: wild type) 0.697 ± 0.038.

In the case of AYTEVKAVRIKL [ALD6 C-terminal 12 aa], the protein stability index came to 0.6745 ± 0.0043 under setting [1] and 0.69 ± 0.02 (genetic background: wild type).

With CGVSWKSGVVKL [PXP2 C-terminal 12 aa], the protein stability index by setting is: under setting [1], 0.7093 ± 0.0022; (genetic background: wild type) 0.716 ± 0.031.

Take CLFGMAWLSTIL [YIP4 C-terminal 12 aa]: the protein stability index turned out to be 0.661 ± 0.015 under setting [1] and 0.623 ± 0.0079 (genetic background: wild type).

As to CLILSCSWWILN [YJR020W C-terminal 12 aa], the protein stability index reads like this: under setting [1], 0.292 ± 0.0085; (genetic background: wild type) 0.1518 ± 0.00025.

As for CLSDIAKVLRNQ [PBP4 C-terminal 12 aa], the protein stability index by setting is: under setting [1], 0.661 ± 0.0092; (genetic background: wild type) 0.577 ± 0.015.

Regarding CPLCRSEIPFRR [RKR1 C-terminal 12 aa], the protein stability index was found to be 0.75 ± 0.028 under setting [1] and 0.724 ± 0.039 (genetic background: wild type).

As for CRESNLKLIVSG [ARR2 C-terminal 12 aa], the protein stability index by setting is: under setting [1], 0.6753 ± 0.002; (genetic background: wild type) 0.712 ± 0.016.

Regarding CSGMKPISELQQ [RSM28 C-terminal 12 aa], the protein stability index reads like this: under setting [1], 0.695 ± 0.015; (genetic background: wild type) 0.682 ± 0.017.

Consider CSPVLFSLLNIA [LCB3 C-terminal 12 aa], for which the protein stability index by setting is: under setting [1], 0.699 ± 0.012; (genetic background: wild type) 0.674 ± 0.087.

Turning to DAKFMMQASCSS [FMP40 C-terminal 12 aa], the protein stability index turned out to be 0.6897 ± 0.0051 under setting [1] and 0.682 ± 0.035 (genetic background: wild type).

As for DASVEQNILAVL [RQT4 C-terminal 12 aa], the protein stability index is, setting by setting: under setting [1], 0.70427 ± 0.00032; (genetic background: wild type) 0.6904 ± 0.0037.

For the sequence DAVAEEVKKILA [LEU2 C-terminal 12 aa], the protein stability index amounted to 0.689 ± 0.018 under setting [1] and 0.68 ± 0.0084 (genetic background: wild type).

Consider DCLEGMLELEKL [DSS1 C-terminal 12 aa], for which the protein stability index runs as follows: under setting [1], 0.698 ± 0.025; (genetic background: wild type) 0.677 ± 0.041.

For DDDNEDVEMSDA [NOC2 C-terminal 12 aa], the protein stability index under setting [1] came out at 0.66818 ± 0.00066 and the protein stability index (genetic background: wild type) was 0.693 ± 0.057.

DDEDEEDDDFKE [CHZ1 C-terminal 12 aa]: the protein stability index is, setting by setting: under setting [1], 0.725 ± 0.021; (genetic background: wild type) 0.671 ± 0.017.

Regarding DDYAQYLDQDSD [MAK21 C-terminal 12 aa], the protein stability index under setting [1] is 0.7147 ± 0.004 and the protein stability index (genetic background: wild type) turned out to be 0.671 ± 0.011.

As to DEDEDDSTTKEP [GLC8 C-terminal 12 aa], the protein stability index under setting [1] stood at 0.679 ± 0.011 and the protein stability index (genetic background: wild type) is 0.7 ± 0.026.

For the sequence DEDLWEEQEVCP [YGR017W C-terminal 12 aa], the protein stability index runs as follows: under setting [1], 0.702 ± 0.0037; (genetic background: wild type) 0.709 ± 0.011.

Consider “DELSLRPATERI [YGR038C-E C-terminal 12 aa]”, for which the protein stability index by setting is: under setting [1], 0.739 ± 0.23; (genetic background: wild type) 0.571.

In the case of DFNDSSNLKKTR [CLN3 C-terminal 12 aa], the protein stability index was 0.7398 ± 0.0057 under setting [1] and 0.693 ± 0.039 (genetic background: wild type).

DGEFVVSDLRLR [YOR283W C-terminal 12 aa]: the protein stability index is, setting by setting: under setting [1], 0.708 ± 0.0071; (genetic background: wild type) 0.682 ± 0.015.

Consider DGGVKRIRVWGY [DAL2 C-terminal 12 aa], for which the protein stability index was found to be 0.706 ± 0.024 under setting [1] and 0.703 ± 0.054 (genetic background: wild type).

As to DGVENTPVESQQ [NMD3 C-terminal 12 aa], the protein stability index under setting [1] came out at 0.6821 ± 0.0024 and the protein stability index (genetic background: wild type) is 0.707 ± 0.0061.

Take DIFSRFSIILKC [YPR136C C-terminal 12 aa]: the protein stability index runs as follows: under setting [1], 0.413 ± 0.017; (genetic background: wild type) 0.281 ± 0.012.

As for DIRAHLAEYYSF [PAU7 C-terminal 12 aa], the protein stability index stood at 0.728 ± 0.026 under setting [1] and 0.687 ± 0.011 (genetic background: wild type).

In the case of DKLGFLDRRRNE [COI1 C-terminal 12 aa], the protein stability index stood at 0.683 ± 0.036 under setting [1] and 0.668 ± 0.043 (genetic background: wild type).

Consider DKRNLLEILDFS [RRT13 C-terminal 12 aa], for which the protein stability index reads like this: under setting [1], 0.72 ± 0.021; (genetic background: wild type) 0.695 ± 0.029.

With DKSCIDIRSIIH [YAP5 C-terminal 12 aa], the protein stability index is, setting by setting: under setting [1], 0.706 ± 0.011; (genetic background: wild type) 0.726 ± 0.041.

DLEDEIEMEDVV [TFG2 C-terminal 12 aa]: the protein stability index reads like this: under setting [1], 0.699 ± 0.027; (genetic background: wild type) 0.711 ± 0.046.

Consider DLLNKESEYLNI [FAR11 C-terminal 12 aa], for which the protein stability index is, setting by setting: under setting [1], 0.705 ± 0.012; (genetic background: wild type) 0.755 ± 0.061.
